The supplement of paper PMC10567573

B1: TRIB1 (parent)
chain: SYVRSRKRLREEEAARLFKQIVSA
B2: TRIM35 (parent)
chain: DKELLCCSCQADPRHQGHRVQPVK

Variants of: B1
Assay: protein stability index of a GFP-peptide fusion (GPS, HEK-293T) (PSI 1-6); higher = more stable
Conditions: c terminus: a fixed tail appended
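Also: lentivirally expressed fusions sorted by FACS into six bins by GFP to DsRed ratio, PSI derived from sequencing read proportions per bin multiplied by bin number.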

Protein stability index, by site and new letter:
E12: M 2.48 | N 2.61 | C 1.76 | T 2.03 | A 2.16 | I 2.65 | D 1.9 | L 2
Y2: W 1.25 | M 2.91 | R 2.17 | N 2.83 | H 2.58 | G 1.83 | Q 2.48 | A 2.5 | T 2.38
S5: K 2.31 | M 1.92 | P 2.27 | L 2.5 | G 3.13 | H 1.94 | I 1.73 | N 2.12 | A 1.76
K19: Y 2.02 | T 2.04 | L 1.33 | R 1.85 | P 2.81 | M 2.43 | H 1.69 | S 2.31 | Q 2.21 | D 2.25 | F 2.71
A15: Y 1.71 | E 2.56 | R 2.62 | W 1.74 | T 2.08 | V 1.84 | L 2.05 | D 2.32 | F 1.59 | H 2.08
R4: S 1.87 | L 2.35 | H 2.56 | E 2.76 | C 1.7 | Q 2.09 | T 1.8 | N 2.76 | A 1.41 | P 1.77 | I 1.57 | Y 2.11 | W 1.29 | D 2.44
F18: I 2.06 | C 3.31 | W 2.56 | A 3.44 | D 3.83 | R 3.74 | Y 2.08 | G 3.92
R6: T 2.07 | Y 2.23 | G 1.72 | I 2 | M 1.54 | L 1.85 | K 2.63 | C 1.85 | W 1.97 | D 2.99 | H 2.33 | V 1.95 | F 1.42
S23: D 3.05 | H 1.8 | F 2.07 | Y 1.73 | L 2.18 | K 2.3 | P 2.99 | T 1.75 | G 1.9 | N 2.32 | A 2.01 | R 1.99 | C 1.63 | I 1.48 | W 1.07 | Q 1.94 | E 2.56
L9: Q 2.3 | A 1.91 | I 3.23 | V 1.75 | Y 2 | D 2.47 | C 1.5 | H 2.24 | F 1.68 | W 2.56 | K 2.25 | P 1.86
S1: Y 1.41 | V 1.65 | E 1.5 | A 2.07 | Q 1.58 | D 1.88 | N 2.2 | P 2.1 | R 1.95 | F 1.45
V3: W 1.61 | R 2.63 | M 1.58 | Y 1.98 | D 2.05 | F 2.64 | K 1.99 | A 1.68 | I 1.69 | N 2.08 | C 1.71
K7: D 3.05 | R 2.11 | P 2.03 | N 2.15 | T 2.52 | H 1.58 | A 2.06 | E 2.5 | M 2.38 | G 2.99 | I 1.86 | W 1.62 | Q 2.02
R10: H 2.63 | T 2.67 | F 2.04 | V 1.69 | E 2.27 | W 2.12 | I 1.83 | G 3.19 | S 2.34 | P 2.28 | L 2.23 | M 1.35 | K 3.08
E11: V 1.75 | H 2.41 | G 1.33 | N 2.13 | S 2.69 | I 1.4 | R 1.54 | K 2.25 | W 2.05 | A 2.05 | Y 1.22 | Q 1.9 | M 1.66 | D 2.17 | T 2.44
R8: S 1.99 | E 3.2 | Y 1.99 | V 2.37 | C 2.05 | P 2.09 | M 1.58 | H 1.96 | Q 2.38 | K 2.49 | N 2.6
R16: Y 2.32 | H 2.2 | C 2.01 | E 2.87 | M 2.52 | L 1.93 | P 3.39 | D 2.17 | K 2.31 | S 1.72 | F 2.66 | A 1.9 | Q 2.63 | G 2.41
A14: I 2.4 | Q 2.99 | R 3.17 | D 1.59 | W 2.11 | M 1.81 | S 3.24 | T 2.83 | L 2.03 | N 1.89 | G 3.38 | Y 2.18 | E 2.85 | H 2.26 | V 2.09
A24: R 2.01 | M 1.14 | P 2.63 | I 2.88 | E 1.99 | H 2.58 | K 2.97 | S 2.08 | L 1.65 | Q 2.18 | G 3.39 | Y 2.32 | T 2.47
I21: F 2.2 | L 1.39 | R 3.8 | K 3.27 | V 2.34 | N 4.01 | Y 2.06 | H 2.4 | W 3.98
E13: N 2.53 | L 2.54 | M 2.21 | I 2.52 | V 1.65 | D 1.73 | T 1.74 | K 2.94 | S 2.05 | G 3.21 | C 2.05 | P 2.41 | R 2.85
L17: S 2.62 | D 3.46 | T 2.87 | W 2.24 | H 2.48 | K 2.61 | N 3.21 | E 3.46 | A 2.49 | R 2.1 | G 3.72 | V 2.98 | F 1.6 | P 3.97 | Y 2.61 | Q 2.1
V22: I 2.94 | W 3.04 | Q 3.34 | L 2.54 | G 3.11 | R 3.3 | N 2.86 | H 2.23 | Y 1.49 | S 2.62 | D 3.22 | T 2.94
Q20: G 2.52 | P 3.03 | H 1.54 | K 2.15 | R 1.95 | A 1.8 | F 1.61 | Y 1.13 | N 2.64 | V 1.04 | L 1.32 | E 2.4 | C 1.43 | D 2.08

Variants of: B2
Assay: as above
Conditions: c terminus: a fixed tail appended

Protein stability index of substitutions, site by site:
H18: W 4.14
Q10: I 3.87 | P 3.91 | L 2.85
S8: M 2.87 | D 4.28 | C 4.16 | Y 2.97
G17: I 3.48 | S 3.66 | V 3.08
V20: P 4.54
C6: T 3.76
D1: Y 2.11
Q16: L 3.43
C9: P 4.89 | D 5.29 | F 3.38
D12: R 3.21 | C 4.09 | F 2.73
Q21: F 2.79
H15: E 3.56 | N 3.33 | P 3.54 | L 3.52 | G 3.15
R19: E 4.33 | I 3.19 | M 3.71
P22: T 4.03 | N 3.05 | F 3.44
K24: D 4.05
P13: L 3.76 | H 3.64
E3: D 3.4 | T 3.72
L4: W 2.68 | S 3.8 | A 3.86
C7: E 4.44
K2: C 4.2 | E 4.01
